Experimental data from IntAct's records for PubMed 34948388.

B1: Multifunctional methyltransferase subunit TRM112-like protein (Homo sapiens), Q9UI30 (parent)
chain: MKLLTHNLLSSHVRGVGSRGFPLRLQATEVRICPVEFNPNFVARMIPKVEWSAFLEAADNLRLIQVPKGPVEGYEENEEFLRTMHHLLLEVEVIEGTLQCPESGRMFPISRGIPNMLLSEEETES
partner: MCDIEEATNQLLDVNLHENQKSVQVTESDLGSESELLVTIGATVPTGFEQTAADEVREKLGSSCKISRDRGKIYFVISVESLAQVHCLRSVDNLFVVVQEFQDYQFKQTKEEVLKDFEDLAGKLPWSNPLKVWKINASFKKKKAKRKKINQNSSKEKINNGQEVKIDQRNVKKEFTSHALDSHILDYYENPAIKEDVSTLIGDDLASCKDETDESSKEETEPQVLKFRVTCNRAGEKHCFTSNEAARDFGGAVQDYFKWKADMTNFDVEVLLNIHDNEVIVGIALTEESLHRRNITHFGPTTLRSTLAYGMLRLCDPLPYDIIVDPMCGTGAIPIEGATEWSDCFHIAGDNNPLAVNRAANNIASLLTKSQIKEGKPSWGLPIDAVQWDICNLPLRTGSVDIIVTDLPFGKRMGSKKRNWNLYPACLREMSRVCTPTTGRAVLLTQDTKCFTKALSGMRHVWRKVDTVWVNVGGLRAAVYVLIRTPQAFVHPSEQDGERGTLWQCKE
B2: Multifunctional methyltransferase subunit TRM112-like protein (Homo sapiens), Q9UI30 (parent)
chain: B1 chain
partner: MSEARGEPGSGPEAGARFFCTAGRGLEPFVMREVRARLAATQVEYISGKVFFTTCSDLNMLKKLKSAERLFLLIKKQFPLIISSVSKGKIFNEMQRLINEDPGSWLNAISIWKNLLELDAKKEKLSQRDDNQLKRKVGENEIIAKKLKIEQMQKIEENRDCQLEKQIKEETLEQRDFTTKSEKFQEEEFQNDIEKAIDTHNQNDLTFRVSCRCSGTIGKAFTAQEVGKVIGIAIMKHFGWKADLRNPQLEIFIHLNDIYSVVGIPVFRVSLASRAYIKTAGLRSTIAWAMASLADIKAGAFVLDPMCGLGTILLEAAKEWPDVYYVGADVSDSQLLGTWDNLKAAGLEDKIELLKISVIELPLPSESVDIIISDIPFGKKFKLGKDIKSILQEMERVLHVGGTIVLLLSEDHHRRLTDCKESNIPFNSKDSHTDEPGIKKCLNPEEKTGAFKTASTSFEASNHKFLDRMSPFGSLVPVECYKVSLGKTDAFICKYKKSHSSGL

Variants of: B1
Settings: with thum3_human THUMPD3, Q9BV44

Q: With MKLLTHNWLSSHVRGVGSRGFPLRLQATEVRICPVEFNPNFVARMIPKVEWSAFLEAADNLRLIQVPKGPVEGYEENEEFLRTMHHLLLEVEVIEGTLQCPESGRMFPISRGIPNMLLSEEETES as the variant, how does the “effect of a mutation on the interaction” value read?
A: Its value is “disrupting interaction strength”.

Q: With MKLLTHNLLFSHVRGVGSRGFPLRLQATEVRICPVEFNPNFVARMIPKVEWSAFLEAADNLRLIQVPKGPVEGYEENEEFLRTMHHLLLEVEVIEGTLQCPESGRMFPISRGIPNMLLSEEETES as the variant, how does the “effect of a mutation on the interaction” value read?
A: The value was “with no effect”.

Q: Which “effect of a mutation on the interaction” value does the source give for MKLLTHNLLSSHVRGVGSRGFPLRLQATEVRICPVEFNPNFVARAIPKVEWSAFLEAADNLRLIQVPKGPVEGYEENEEFLRTMHHLLLEVEVIEGTLQCPESGRMFPISRGIPNMLLSEEETES here?
A: Its value is “disrupting interaction strength”.

Q: Which “effect of a mutation on the interaction” value does the source give for MKLLTHNLLSSHVRGVGSRGFPLRLQATEVRICPVEFNPNFVARMIPAVEWSAFLEAADNLRLIQVPKGPVEGYEENEEFLRTMHHLLLEVEVIEGTLQCPESGRMFPISRGIPNMLLSEEETES here?
A: The value was “disrupting interaction strength”.

Q: How did the “effect of a mutation on the interaction” value turn out when MKLLTHNLLSSHVRGVGSRGFPLRLQATEVRICPVEFNPNFVARMIPKVEWSAFLEAADNLRLIQVPKGPVEGYEENEEFLRTMHHLLLEVEVIEGTLQCPESGRMFPISRGAPNMLLSEEETES was run?
A: The value was “disrupting interaction strength”.

Q: Which “effect of a mutation on the interaction” value does the source give for MKLLAHNLLSSHVRGVGSRGFPLRLQATEVRICPVEFNPNFVARMIPKVEWSAFLEAADNLRLIQVPKGPVEGYEENEEFLRTMHHLLLEVEVIEGTLQCPESGRMFPISRGIPNMLLSEEETES here?
A: The value was “disrupting interaction strength”.

Q: For MKLLTHNLLSSHVRGVGSRGFPLRLQATEVRICPVEFNPNFVARMIPAVEWSAFLEAADNLRLIQVPKGPVEGYEENEEFLRTMHHLLLEVAVIEGTLQCPESGRMFPISRGIPNMLLSEEETES, which “effect of a mutation on the interaction” value is on record?
A: Its value is “disrupting interaction strength”.

Q: MKLLTHNLLSSHVRGVGSRGFPLRLQATEVRICPVEFNPNFVARMIPKVAWSAFLEAADNLRLIQVPKGPVEGYEENEEFLRTMHHLLLEVEVIEGTLQCPESGRMFPISRGIPNMLLSEEETES was tested. Which “effect of a mutation on the interaction” value did it give?
A: The value was “with no effect”.

Q: Which “effect of a mutation on the interaction” value does the source give for MKLLTHNLLSSHVRGVGSRGFPLRLQATEVRICPVEFNPNFVARMIPKVEWSAFLEAADNLRLIQVPKGPVEGYEENEEFLRTMHHLLLEVEVIEGTLQCPESGRMAPISRGIPNMLLSEEETES here?
A: The value was “disrupting interaction strength”.

Q: For MKLLTHNLLSSHVRGVGSRGFPLRLQATEVRICPVEFNPNFVARMIPKVEWSAFLEAADNLRLIQVPKGPVEGYEENEEFLRTMHHLLLEVAVIEGTLQCPESGRMFPISRGIPNMLLSEEETES, which “effect of a mutation on the interaction” value is on record?
A: The value was “disrupting interaction strength”.

Variants of: B2
Settings: with thum2_human THUMPD2, Q9BTF0

Q: How did the “effect of a mutation on the interaction” value turn out when MKLLTHNLLSSHVRGVGSRGFPLRLQATEVRICPVEFNPNFVARMIPAVEWSAFLEAADNLRLIQVPKGPVEGYEENEEFLRTMHHLLLEVAVIEGTLQCPESGRMFPISRGIPNMLLSEEETES was run?
A: Its value is “disrupting interaction strength”.

Q: For MKLLTHNLLSSHVRGVGSRGFPLRLQATEVRICPVEFNPNFVARMIPKVEWSAFLEAADNLRLIQVPKGPVEGYEENEEFLRTMHHLLLEVAVIEGTLQCPESGRMFPISRGIPNMLLSEEETES, which “effect of a mutation on the interaction” value is on record?
A: The value was “disrupting interaction strength”.

Q: MKLLTHNLLSSHVRGVGSRGFPLRLQATEVRICPVEFNPNFVARAIPKVEWSAFLEAADNLRLIQVPKGPVEGYEENEEFLRTMHHLLLEVEVIEGTLQCPESGRMFPISRGIPNMLLSEEETES was tested. Which “effect of a mutation on the interaction” value did it give?
A: The value was “disrupting interaction strength”.

Q: With MKLLTHNWLSSHVRGVGSRGFPLRLQATEVRICPVEFNPNFVARMIPKVEWSAFLEAADNLRLIQVPKGPVEGYEENEEFLRTMHHLLLEVEVIEGTLQCPESGRMFPISRGIPNMLLSEEETES as the variant, how does the “effect of a mutation on the interaction” value read?
A: The value was “disrupting interaction strength”.

Q: For MKLLTHNLLSSHVRGVGSRGFPLRLQATEVRICPVEFNPNFVARMIPKVAWSAFLEAADNLRLIQVPKGPVEGYEENEEFLRTMHHLLLEVEVIEGTLQCPESGRMFPISRGIPNMLLSEEETES, which “effect of a mutation on the interaction” value is on record?
A: Its value is “with no effect”.

Q: For MKLLTHNLLSSHVRGVGSRGFPLRLQATEVRICPVEFNPNFVARMIPAVEWSAFLEAADNLRLIQVPKGPVEGYEENEEFLRTMHHLLLEVEVIEGTLQCPESGRMFPISRGIPNMLLSEEETES, which “effect of a mutation on the interaction” value is on record?
A: The value was “disrupting interaction strength”.

Q: With MKLLTHNLLFSHVRGVGSRGFPLRLQATEVRICPVEFNPNFVARMIPKVEWSAFLEAADNLRLIQVPKGPVEGYEENEEFLRTMHHLLLEVEVIEGTLQCPESGRMFPISRGIPNMLLSEEETES as the variant, how does the “effect of a mutation on the interaction” value read?
A: Its value is “disrupting interaction strength”.

Q: Which “effect of a mutation on the interaction” value does the source give for MKLLAHNLLSSHVRGVGSRGFPLRLQATEVRICPVEFNPNFVARMIPKVEWSAFLEAADNLRLIQVPKGPVEGYEENEEFLRTMHHLLLEVEVIEGTLQCPESGRMFPISRGIPNMLLSEEETES here?
A: Its value is “disrupting interaction strength”.

Q: Which “effect of a mutation on the interaction” value does the source give for MKLLTHNLLSSHVRGVGSRGFPLRLQATEVRICPVEFNPNFVARMIPKVEWSAFLEAADNLRLIQVPKGPVEGYEENEEFLRTMHHLLLEVEVIEGTLQCPESGRMAPISRGIPNMLLSEEETES here?
A: The value was “disrupting interaction strength”.
